From US20210380703A1 (RIGEL PHARMACEUTICALS, published 2021)
Where a chain is given by its changes, count along the chain named. Values belong to the binder of their own block, whether it stands above or below them.

Assays:
[1] = target: T1, biotinylated goat anti-human kappa light chain; experiment: ELISA, positive control
T1 construct: Positive control of the ELISA
Outline: (§1)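 Monoclonal antibodies were first applied to human or mouse ACVR2A, alongside biotinylated goat anti-human kappa light chain (positive control) and human Fc (negative control); binding was then determined by ELISA.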

[2] = target: mouse ACVR2A (mouse, UniProt P27038 20-135, limits assumed); experiment: ELISA
mouse ACVR2A, sequence (P27038 20-135 limits assumed): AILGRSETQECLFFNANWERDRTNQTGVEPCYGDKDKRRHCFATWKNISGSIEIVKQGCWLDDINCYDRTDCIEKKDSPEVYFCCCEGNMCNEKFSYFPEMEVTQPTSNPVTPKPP
Outline: as §1

[3] = target: T2, human ACVR2A (human, UniProt P27037 20-135, limits assumed); experiment: ELISA
T2 construct: also called activin receptor, type II A
T2 sequence (P27037 20-135 limits assumed): as the sequence (P27038 20-135 limits assumed) above, with R20K, I73V counted along it
Outline: as §1
Also: test concentration or dose not given here.

- optical density [1]: 3.55 OD
- optical density [2]: 3.66 OD
- optical density [3]: 3.6 OD
B1: 369_A01 (antibody, V domains shown)
VH: EVQLLESGGGLVQPGGSLRLSCAASGFTFDSYSMNWVRQAPGKGLEWVSGINYNSGYKGYADSVKGRFTISRDNSKNTLYLQMNSLRAEDTAVYYCARSATWHDTHLDYWGQGTLVTVSS
VL: DIQMTQSPSSLSASVGDRVTITCRASQSILTYVNWYQQKPGKAPKLVIYAATSLASGVPSRFSGSGSGTDFTLTISSLQPEDFATYYCQQSYELPLTFGGGTKVEIK
notes: VH and VL only

- optical density [1]: 3.6 OD
- optical density [2]: 3.27 OD
- optical density [3]: 3.36 OD
B2: 369_G09 (antibody, V domains shown)
VH: B1 VH with G50N, S55G, K58T
VL: B1 VL with L30V, V33L, V47L, L54R, E93D
notes: VH and VL only

- optical density [1]: 3.47 OD
- optical density [2]: 2.88 OD
- optical density [3]: 2.58 OD
B3: 370_A10 (antibody, V domains shown)
VH: B1 VH with D30S, S31D, G50S
VL: B1 VL with T31S, V47L, E93D, L94T
notes: VH and VL only

- optical density [1]: 3.52 OD
- optical density [2]: 2.33 OD
- optical density [3]: 2.41 OD
B4: 370_A08 (antibody, V domains shown)
VH: B1 VH with G50S, K58T
VL: B1 VL with L30V, V33L, L54R, E93D
notes: VH and VL only

- optical density [1]: 2.21 OD
- optical density [2]: 1.64 OD
- optical density [3]: 1.45 OD
B5: 369_H11 (antibody, V domains shown)
VH: B1 VH with D30S, S31D, S33G, G50S, S55G, K58T
VL: B1 VL with T31S, V33L, V47L, L54R, A55H, E93D
notes: VH and VL only

- optical density [1]: 3.52 OD
- optical density [2]: 3.3 OD
- optical density [3]: 2.88 OD
B6: 369_E04 (antibody, V domains shown)
VH: B1 VH with D30S, S31D, G59S
VL: B1 VL with T31S, L54R, E93S
notes: VH and VL only

- optical density [1]: 3.38 OD
- optical density [2]: 3.14 OD
- optical density [3]: 2.81 OD
B7: 370_D07 (antibody, V domains shown)
VH: B1 VH with D30S, S33G, G50N, K58T
VL: B1 VL with T31S, L94S
notes: VH and VL only

- optical density [1]: 3.32 OD
- optical density [2]: 3.01 OD
- optical density [3]: 2.89 OD
B8: 369_A06 (antibody, V domains shown)
VH: B1 VH with D30S, S31D, S33G, G50N, S55G, K58T
VL: B1 VL with T31S, V47L, E93D
notes: VH and VL only

- optical density [1]: 3.48 OD
- optical density [2]: 3.77 OD
- optical density [3]: 3.63 OD
B9: 369_E09 (antibody, V domains shown)
VH: B1 VH with G50N
VL: B1 VL with T31S, V33L, L54R, E93D
notes: VH and VL only

- optical density [1]: 3.11 OD
- optical density [2]: 3.35 OD
- optical density [3]: 3.44 OD
B10: 369_D06 (antibody, V domains shown)
VH: B1 VH with S55G, K58T
VL: B1 VL with V33L, V47L, L54R, L94T
notes: VH and VL only

- optical density [1]: 1.65 OD
- optical density [2]: 1.24 OD
- optical density [3]: 1.05 OD
B11: 371_B05 (antibody, V domains shown)
VH: B1 VH with D30S, K58T, G59S
VL: B1 VL with V33L, Y92D, L94T
notes: VH and VL only

- optical density [1]: 2.8 OD
- optical density [2]: 2.33 OD
- optical density [3]: 2.32 OD
B12: 369_C08 (antibody, V domains shown)
VH: B1 VH with D30S, S31D, S33G, G50N, S55G, K58T
VL: B1 VL with V33L, L94N
notes: VH and VL only

- optical density [1]: 3.46 OD
- optical density [2]: 2.17 OD
- optical density [3]: 1.95 OD
B13: 369_F04 (antibody, V domains shown)
VH: B1 VH with D30S, S33G, S55G, K58T, G59S
VL: B1 VL with L30I, T31S, V47L, L54R, A55H, E93D, L94N
notes: VH and VL only

- optical density [1]: 3.44 OD
- optical density [2]: 3.36 OD
- optical density [3]: 3.31 OD
B14: 371_B10 (antibody, V domains shown)
VH: B1 VH with G50N, S55G, K58T
VL: B1 VL with L30V, T31S, V47L, L54R, E93D
notes: VH and VL only
